In article PMC12551957, “Human monoclonal antibodies to HPV16 show evidence for common developmental pathways and public epitopes” (PLOS Pathogens, 2025):

What was measured:
[1] = molecular target: soluble HPV16 L1 capsomer (human papillomavirus type 16 (HPV16)); assay: cryo-EM structure
[2] = molecular target: HPV16 L1 (as in the HPV16L1 binding assays and on pseudovirus psV16) (Human papillomavirus type 16; L1 of …, UniProt J3SRV0); assay: cell-based or functional assay
Chain of HPV16 L1 (as in the HPV16L1 binding assays and on pseudovirus psV16) (P03101 whole entry): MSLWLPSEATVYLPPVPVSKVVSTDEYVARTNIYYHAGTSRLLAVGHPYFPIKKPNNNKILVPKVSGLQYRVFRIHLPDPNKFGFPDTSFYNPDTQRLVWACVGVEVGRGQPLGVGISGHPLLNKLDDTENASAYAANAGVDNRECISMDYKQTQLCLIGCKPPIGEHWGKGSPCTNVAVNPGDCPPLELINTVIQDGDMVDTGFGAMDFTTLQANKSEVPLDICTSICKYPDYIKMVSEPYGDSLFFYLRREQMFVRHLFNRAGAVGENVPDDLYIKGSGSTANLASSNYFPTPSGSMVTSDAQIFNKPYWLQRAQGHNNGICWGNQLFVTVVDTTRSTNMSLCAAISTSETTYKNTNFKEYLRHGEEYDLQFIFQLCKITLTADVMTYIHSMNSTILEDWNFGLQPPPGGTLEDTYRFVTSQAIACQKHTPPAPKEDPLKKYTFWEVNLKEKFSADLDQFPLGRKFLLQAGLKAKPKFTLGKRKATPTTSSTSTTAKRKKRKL

Molecule: soluble HPV16 L1 capsomer (complex)
- stoichiometry N [1]: 5

B1: D24.1M01 with the germline CDRL2 (YGN) (antibody, V domains shown)
VH: QVTLRESGPALVKPTQTLTLTCTISGLSLTTSGVCVSWIRQPPGKALEWLALIDWDDDKYYSTSLRTRLTISKDISKNQVVLTMTNMDPVDTATFFCARTRCTSNWGYYFDSWGRGTRVTVSS
VL: QSVLTQPPSVSGAPGQRVTISCTGSASNIGAGYDVHWYQQVPGAAPKLLIYGNSNRPSGVPDRISGSKSGTSASLAISGLQAEDEADYYCQSYDDSLRGWVFGGGTKLTVL
- psV16 neutralization, fold increase of IC50 against the mature antibody [2]: 5.3 fold
